This experiment addresses human Cε-containing IgE in serum of Hu-IgE transgenic mice (human Cε region and the H chain V region of the murine Mab BAT123) (human) (UniProt P01854). Put plainly: cell-based or functional assay.

Substance “Hu-901 (mCγ2a,κ), intact anti-IgE antibody with humanized variable regions and murine constant regions (from UniProt P01863 1-330)” gave an IgE suppression in Hu-IgE transgenic mice infected with Ad-Hu-901 (mCγ2a,κ), day 4 post infection (free IgE ELISA) of 40 to 90%.

The values above are taken from patent US20020173477A1.
